Measured values: US11230581B2, “Peptides and combination of peptides for use in immunotherapy against ovarian cancer and other cancers” (Immatics Biotechnologies GmbH, priority 2015, dated 2022)

Biological target: HLA-A*02:01 (Homo sapiens, UniProt P04439, D140Y/D185E/D98H/E176V/E277Q/G131W/G231S/I119V/I121R/I166T/I218V/L300P/L318F/N151K/N90K/P208A/P217A/Q86G/Q94H/R138H/R169H/T345S)
Assay: MHC binding assay (UV-ligand exchange, β2m ELISA, peptide exchange yield)
Details: binding of HLA-class I restricted peptides to HLA-A*02:01, UV-ligand exchange
In short: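 Peptide-MHC complexes formed by UV-ligand exchange, cleaving a UV-sensitive placeholder peptide in favour of the test peptide. Exchange yield measured by ELISA: monomers diluted 100-fold onto streptavidin-coated plates, 1 h 37 °C, detected with 2 ug/ml HRP anti-β2m and TMB, absorbance at 450 nm.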

Row | Peptide exchange (MHC class I binding score, peptide exchange yield) | Substance
1 | “+++” (≥50 = +++) | 441 (ALLENPKMEL; listed as Homo sapiens) [compound 441]
2 | “+++” (≥50 = +++) | 113 (GLLPTPLFGV; listed as Homo sapiens) [compound 113]
3 | “+++” (≥50 = +++) | 188 (GLFPVTPEAV; listed as Homo sapiens) [compound 188]
4 | “+++” (≥50 = +++) | 399 (YLFEPLYHV; listed as Homo sapiens) [compound 399]
5 | “+++” (≥50 = +++) | 331 (KVDTVWVNV; listed as Homo sapiens) [compound 331]
6 | “++” (≥20% = ++) | 185 (FLIDDKGYTL; listed as Homo sapiens) [compound 185]
7 | “++” (≥20% = ++) | 186 (TLFFQQNAL; listed as Homo sapiens) [compound 186]
8 | “++” (≥20% = ++) | 227 (ALMNTLLYL; listed as Homo sapiens) [compound 227]
9 | “+++” (≥50 = +++) | 556 (FLTDLEDLTL; listed as Homo sapiens) [compound 556]
10 | “+++” (≥50 = +++) | 161 (ALLEGVNTV; listed as Homo sapiens) [compound 161]
11 | “+++” (≥50 = +++) | 351 (SLIPNLRNV; listed as Homo sapiens) [compound 351]
12 | “+++” (≥50 = +++) | 537 (TLAPGEVLRSV; listed as Homo sapiens) [compound 537]
13 | “+++” (≥50 = +++) | 86 (NLIGKIENV; listed as Homo sapiens) [compound 86]
14 | “++++” (≥75% = ++++) | 585 (ALWDLAADKQTL; listed as Homo sapiens) [compound 585]
15 | “++” (≥20% = ++) | 133 (KVLSNIHTV; listed as Homo sapiens) [compound 133]
16 | “+++” (≥50 = +++) | 224 (TLIDAQWVL; listed as Homo sapiens) [compound 224]

Row | Peptide exchange (MHC class I binding score, peptide exchange yield) | Substance
17 | “+++” (≥50 = +++) | 608 (SLLSVSHAL; listed as Homo sapiens) [compound 608]
18 | “+++” (≥50 = +++) | 529 (LLADELITV; listed as Homo sapiens) [compound 529]
19 | “+++” (≥50 = +++) | 364 (LLQNEQFEL; listed as Homo sapiens) [compound 364]
20 | “++” (≥20% = ++) | 447 (QLVPALAKV; listed as Homo sapiens) [compound 447]
21 | “+++” (≥50 = +++) | 589 (KLYPQLPAEI; listed as Homo sapiens) [compound 589]
22 | “++” (≥20% = ++) | 221 (ALYEEGLLL; listed as Homo sapiens) [compound 221]
23 | “+++” (≥50 = +++) | 247 (VLLPNDLLEKV; listed as Homo sapiens) [compound 247]
24 | “+++” (≥50 = +++) | 78 (SLFSSLEPQIQPV; listed as Homo sapiens) [compound 78]
25 | “+++” (≥50 = +++) | 619 (ALQDRVPLA; listed as Homo sapiens) [compound 619]
26 | “+++” (≥50 = +++) | 327 (GLAPFTEGISFV; listed as Homo sapiens) [compound 327]
27 | “+++” (≥50 = +++) | 509 (FLFDTKPLIV; listed as Homo sapiens) [compound 509]
28 | “+++” (≥50 = +++) | 41 (SLMPHIPGL; listed as Homo sapiens) [compound 41]
29 | “+++” (≥50 = +++) | 249 (LLDGFLVNV; listed as Homo sapiens) [compound 249]
30 | “+++” (≥50 = +++) | 562 (YLEELPEKLKL; listed as Homo sapiens) [compound 562]
31 | “+++” (≥50 = +++) | 362 (TLYGLSVLL; listed as Homo sapiens) [compound 362]
32 | “+++” (≥50 = +++) | 298 (VMITKLVEV; listed as Homo sapiens) [compound 298]
